The data set in a line: label from the status in PepcDB records.

From a protein production outcome set (Wang et al. 2014) come the findings set out here.

For the sequence “MGKGKSAIESQIRMLKLAKEIVEEVASSFPNLEEVYIFGSRARGDYLDTSDIDILFVFKGIKEMNVFDRMYMVSRFIRGNVDYIVLDEGEKDRVKDKVLFWKREKGFVLL”, the protein production result is “not failed”.

Consider “MGKNLKGKELGKGLYQRKDGRYEARIFVRGTGKTFSIYGTNLQHLKKERNAYLANVSPGIAGYDPRISVSKWYEKWMLIYVVHSVKATTLSNYVNGFERVREYIGYMRLIEVRPTHILDMIKGLEEEGYARTTVIQSLSVVRQLFKKAYGGKMIPIDPVADIKLPKEEPGEIPDEKIMQEQEDEKCLSIYDTHRFLESCKNTRYYELFFILLHTGLRIGEALALEWCDLDFKHEKLRVYKTLNRVTKYYDLKGNELPERYSTIQITTPKKSASNRKVPLTDAVIAAFMSWKEKQDRDKEKLGKNWGKPNILLKKYPGLIFTTSSGRSYLPSSAQTECRRIVGIVNKHEIALAEKENRDPNLMDVHPHIFRHTFVTRCIQSGMDAATVKKIAGHSDEKMTNYYTHIEEEHIDDEYELYIQKYGTET”, for which the protein production result was “failed”.

Regarding “MGLASMESWIDLLEWPAMLVTVVAAWCIGSHRPGRRMVGFCCFIASNILWSVWGWHAQAWALIVLQLVLCLMNLRGWRKNKRASRKAPSEKVQGGADATPYHLLTSTSRGQPENPS”, the protein production result was “failed”.

As for “MGLFTDGFKLLKKASEPLYKTPKSIQETIEIMAVAENGIFEVSKNKYSKCYRFQDINYTTATEDEQIGIFERYCKFLNSLDCNYKITINNKNKNMDELRDKVLIAEKNDGFNNYRRIYNDIIEEKIIEGRQGIEQERYLTITIERKNFEEAKAQFATLEATIHKAFIELGAEIVPLNGNERLKVLYDYYHLGDEGSFDFDIKKAKKVGADFRNDLCNGMVKYFPDHFEDESKFCKALFIKKYPSSLSDRFINEITSLPVHSITSIDVVPVPKDLTTKVLQKKYLGIESDIIKQQRVRNKNNDFSTEISYAKRTEKKEIEEIMDDVRENDQCLFFVGVTIILMAESKKELESVCETVETIGKRNSCTIDTHYLKQREALNTALPIGVRQVETMRTLLTQSLAVLMPFNVQELNDSTGNYYGINQISKNVNIGNRKKLINGNGFVFGVPGSGKSFFCKMEMGSVFLSGDDEIIVIDPMNEYFDIAETYGGTVVNMSTYTDNYVNPLEMDVWSLDPNDSKGMVREKGEFMLGLCEQCIGDSLNSRQKSIIDRCVRKLYIDIARSKEKYIPVMSDFYDILMAQPEDEAKDIALSLELFVNGSLNIFNHQTNVDVDNRFTVYGIRDLGTELSPITMLVMMESIQNRIVENGKRGKATWLYIDEFHVLLNSEYSAKYLQQLWKKVRKQGGLCTGITQNVVDLLQNYTATTMLANSEFVALLKQANTDSSKMAEVIGVSEAQLRFVTNTASGMGLIKCGSVVIPFDNQISKDTDLYKLYNTNIHEIIEMKKHANEKNVNSL”, the protein production entry is given as “failed”.

Consider “MGLGRQSLNIMTFSGQELTAIIKMAKSMVMADGKIKPAEIAVMTREFMRFGILQDQVDLLLKASDSIEASQAVALIARMDEERKKYVASYLGVIMASDGDIDDNELALWTLISTLCGLPTMTVMEAINNMKNL”, for which the protein production entry is reported as “not failed”.

On to “MGLKSNSAILPKALFCWSGGKDSAYCLHKVLLEKQFDVCYLLTTVNDTFKRISMHGVRETLLDKQTESIGIPCIKIRIKEGTNSEYEQLMETTLLKAKEEGITHVIFGDIFLEDLRTYRENNLDKVGLQAVFPLWKMDTGILIRDFIRKKFKTILCCINDGYLDETWAGREIDAVFIAQLPGHVDPCGENGEYHTFCYDGPLFQKAITVSTGEKIYKPLDYSLDDVCQSTVPTKGFWYCDLIPD”, for which the protein production entry is given as “failed”.

On to “MGLSRVRAVFFDLDNTLIDTAGASRRGMLEVIKLLQSKYHYKEEAEIICDKVQVKLSKECFHPYSTCITDVRTSHWEEAIQETKGGADNRKLAEECYFLWKSTRLQHMILADDVKAMLTELRKEVRLLLLTNGDRQTQREKIEACACQSYFDAIVIGGEQKEEKPAPSIFYHCCDLLGVQPGDCVMVGDTLETDIQGGLNAGLKATVWINKSGRVPLTSSPMPHYMVSSVLELPALLQSIDCKVSMSV”, for which the protein production result is “not failed”.

As to “MGLSVGIVGLPNVGKSSTFNALTKTQNAQSANYPFCTIEPNKAIVNVPDRRLDALAQIVKPERILHSVVEFVDIAGLIKGASKGEGLGNQFLANIKECEVILQVVRCFEDDNITHVNDKIDPLNDIETIELELILADIAALDKRIDRLQKALKSSKDAKNLLECALSLKTHLEELKPAKTFPLNTSEAFLELDKELRFLSHKKMIYVANVGEEDLNALNEHAKKVKNHAKEQNSEFVALCAKLEEEMVSMSGDEVKEFLQSLGVEESGLEKTIRLSFKELGLINYFTAGVKEVRSWTIKKGSSAPVAAGVIHKDFEKGFIRAETISYDDFIAYKGEAGAKEKGALRIEGKDYIVQDGDVLHFRFNI”, the protein production entry is listed as “failed”.

In the case of “MGMKDVFKRYLVFVIGLYFLAAGIVLIVRSALGTTPISSVNYVLSLNSPLSLGTCTFLINMLLILGQFWVIRKNKTRQDTIEILLQLPFSFIFSAFIDFNMALTSNLHPDNYGMSIALLLTGCMIQSIGVVLELKPKVAMMSAEAFVKYASRRYNKEFGKFKVCFDVTLVTLAVILSLLLSQCIEGVREGSLIAACITGYIVSFLNQKIMTRKTLYKLLPVLK”, the protein production entry is listed as “failed”.

Consider “MGMVFGKIAVETPKYTVTKSGDGYEIREYPPAVAAEVTYDASEFKGDKDGGFQLLAKYIGVFGKPENEKPEKIAMTAPVITKEGEKIAMTAPVITKESEKIEMTSPVVTKEGGGEGRKKLVTMQFLLPSMYKKAEEAPRPTDERVVIKEEGGRKYGVIKFSGIASESVVSEKVKKLSSHLEKDGFKITGDFVLARYNPPWTLPPFRTNEVMIPVE”, for which the protein production entry is “failed”.

“MGNCCVSSGTTDRENENVSDKNTTIVEEETVVKEVLSETTLFTPSSSFRTSTFKDPVKTKIREDEEKKPGFLKMASDPVLIRPGSVDPEEGSEVSEICSLSLSESVSSTVVMNGYDEEHVMMKQRKSQRSPAKTRTQVTGNNYPTRRTDQSPRKRNNGTCNGARYGSGVRDPGERSGRRSRSPATNRSVMDSNQSSRVGGAKTRKNNQSPGRVRLDPAKNGLDQQQHQNYGYTTEELLENPLVSLECFIFL”: the protein production result is on record as “failed”.

For the sequence “MGNCVFKGNGGSRKLYDKDDSLIKVVTPNGGVMELHPPIFAEFITNEFPGHVIHDSLSLRHSSPPLLHGEELFPGNIYYLLPLSSSAAATAQLDSSDQLSTPYRMSFGKTPIMAALSGGGCGVWKVRLVISPEQLAEILAEDVETEALVESVRTVAKCGGYGCGGGVHSRANSDQLSVTSSFKGKLW”, the protein production entry is “not failed”.

For “MGNEEEKMNADIFSYEGEGIQCVYDNKNWVMCIKNWKPNNDIENIRYLEVHHATDEQFVLLKGKAVLLAAVKADGACRIDVIPMEPYKVYNIPQGIWFNTITQKDTKLVYVQDAATTAENSEYCDMTQEELNEVKEKASACLD”, the protein production result is “failed”.

Regarding “MGNFLRRSCAVHPASGDGGRGRHVDEPPQQRPSSVRIKVRMRRDQLEELLYLARRGDQSDDGGKIGFLILKECMEGRLPASVLGSGGDVRSQRRGSYMVYRRLGSITEE”, the protein production result was “failed”.

“MGNFTFEEMNLMCIYNTGSRTGLIDSLREMRGELSPEETELRELTDSALTKLCAMTDEDFAQLELYPDFDQLEHHHHHH”: the protein production result is recorded as “not failed”.

In the case of “MGNKLVNSLSKITTSSKEVTSDILVMNFTIVNAFLIGNKTQWVLVDTALENSADFILKAAEKRFGKGSVPKAIILTHGHFDHVGSVIKLSKLWSVPVYIHELEMPYVTGKKDYPLADPTVDEGMVAKISQTFPHTSIDISSNVSPLPSDSSIPYMPDWKWIHTPGHTDGHISLFREKDHVLIVGDAFCTTKQESLLSVITHHEEISGPPKYLTTDWAKAKNSIICLKNLKPLIAIPSHGEELSGEELTKHLELLINNFDEIAKPAEGQFVTNK”, the protein production entry was “failed”.

For the sequence “MGNLKAEYLEQTYIDLAPLKDAEDCRTYLTRSQVDGSLAVRKEICALQYPLYQQLIDFSHPSLARVLETYTKDGRYFVLEEYVSGSTIGSYLKRGYHFQEHEILSFISQLCSALSFLHAHNIIHRDVTPENLLISTDNVLKLIDFGISRSKKEGQSQDTTILGTVGYAAPEQFGFGQTDERTDIYATGVLLNVLLTGSLPKDDLPFDPRYRQIVLKCTSISPADRYSSVSELKSQIMAIKPTRIYQAEIVEPSGKAPRKDSLIRRFFRHVPGFRTGNPGKMIVAIIGYFLMLLFVVVNGTRPLEPGDIRSEYWTINYFFVGVWAAYVNLGNYCGHIEAYDKVGPLTRLLLRTAVALAVFLTTGLLLYFENYCLK”, the protein production entry is “failed”.

On to “MGNNGRDILAGLSVAGLMLPEAIAYSGIAGVPPQHALYAAMAGCLVYALLGQSRFAIISPTSSSAAILAAMLAALVPQPGQKMLLVAVAVFLVGLFFLAAGTLRLGALSSIISRPVLRGFAFGLAILISLKQFPAIFGMPQAGAGTFEAILQILTNPGQWNGFSLSIGIAALILLLFARRYPQIPGSLIIIALAIPISVMFDLQQRGVDVVGPIDLSGIWGSVTTLSLDELAHVARFAPPLVLILFAESWGTIRGLSLRHGEDVDANRELKTLGIANVASAALQGMPVGAGFSAGAASEAANPRTRMASAIAAIGLAGFTFAAADWFAYIPHAALSAIIIVALLHALDPSPFLRLWRLRQDLVLALAATAGVLFLGVLNGMLAAIVLSFAVFLQRLSSPRIVMLGRLGASHDFVDVKRHPDAAEPAGMLVLRPAQPLFFGNAEPTFAEITRRILASPDINAVIISLEETFELDTTALEALLEFDASLRGRNIGIRYAPMHDAVRDVVAAGGGDDLLRRANYSVDDAVAAMDGLKEEK”, for which the protein production result is given as “failed”.

In the case of “MGNNNSTKESTHDNHSDSSTHEEMDHSGSADVPEGLQESKNPKYKVGSQVIINTSHMKGMKGAEATVTGAYDTTAYVVSYTPTNGGQRVDHHKWVIQEEIKDAGDKTLQPGDQVILEASHMKGMKGATAEIDSAEKTTVYMVDYTSTTSGEKVKNHKWVTEDELSAKLEHHHHHH”, the protein production entry is listed as “not failed”.

For “MGNQDTIIETDNGNSDYETPQPTSFPLEHNHFGVMEDGYIKIYEYNESRNEVKLKKEYADDELELEHHHHHH”, the protein production result is listed as “not failed”.

Turning to “MGNSLHQIKCCTSFIHCQNAAVDAPSIAKTLADYLYPAFFHQDLPAPLKISVTGCPNQCGGGVEADIGISGYFATVPRVDDAGLMAANIDFGHLISGCPVGAIRPRQVEGGTTVVINAERCIRCTSCIQVAPEGIKPGPERFVAIAVGGHGGNNRRGPEMAAVVFSRVPARPLDYAAICERVQRIIACWRDRGKRGERLAGFLERLEHHHHHH”, the protein production result is “failed”.

On to “MGNSQRQSEEIEAMAAIYGEEWCVIDENAKIFCIRVTDFMDDPKWTLCLQVMLPSEYPGTAPPSYQLNAPWLKGQERADLSNSLEEIYVHNMGESILYQWVEKIRDALIQKSQITEP”, for which the protein production entry is reported as “not failed”.

With “MGNTIRALVAFIPADRCQNYVVRDLREMPLDKMVDLSGSQLRRFPLHVCSFRELVKLYLSDNHLNSLPPELGQLQNLQILALDFNNFKALPQVVCTLKQLCILYLGNNKLCDLPSELSLLQNLRTLWIEANCLTQLPDVVCELSLLKTLHAGSNALRLLPGQLRRLQELRTIWLSGNRLTDFPTVLLHMPFLEVIDVDWNSIRYFPSLAHLSSLKLVIYDHNPCRNAPKVAKGVRRVGRWAEETPEPDPRKARRYALVREESQELQAPVPLLPPTNS”, the protein production entry was “failed”.

Take “MGNTTSDRVSGERHGAKAARSEGAGGHAPGKEHKIMVGSTDDPSVFSLPDSKLPGDKEFVSWQQDLEDSVKPTQQARPTVIRWSEGGKEVFISGSFNNWSTKIPLIKSHNDFVAILDLPEGEHQYKFFVDGQWVHDPSEPVVTSQLGTINNLIHVKKSDFEVFDALKLDSMESSETSCRDLSSSPPGPYGQEMYAFRSEERFKSPPILPPHLLQVILNKDTNISCDPALLPEPNHVMLNHLYALSIKDSVMVLSATHRYKKKYVTTLLYKPI”: the protein production result was “not failed”.
